test: yeast display, Sf9 membrane polyspecificity reagent, FACS + sequencing; frameworks hold sequencing errors
Summary of the method: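 Genes from sorted yeast were amplified by colony PCR, read by MiSeq 2 × 250 sequencing and filtered on CDR length. These cells carried a synthetic nanobody library in Saccharomyces cerevisiae BJ5465 and were sorted by FACS into low and high (top ~1%) gates on anti-HA and streptavidin fluorescence. Polyreactivity is labelled according to the gate of origin.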

Sequence | polyreactivity (PSR sort gate)
QVQLVESGGRLVQAGGSLRLTCAATGRTFVRNPMGSYRQAPGKERELVATIRSGGSTNYADSVKGRFTISRDNAKNTVYLQMNSLKPEDTAVYYCATQGSRARYDYYYWGQGTQVTVSS | high polyreactivity
QVQLVESGGRLVQAGGSLSLSCAASGRTFHGYAMGWYRQAPGKERELVARINWSDGRTYYADSVKGRFTISRDNAKNTDYLQMNSLKPEDTAVYYCAADKTVSYAPAWYYYWGQGTQVSVSS | low polyreactivity
QVQLVESGGRLVQAGGSRRLSCAASGFTLRRNAMGWYRQAPGKERELVAAISSSGSTYYADSVKGRFTISRDNAKNTVYLQMNSLKPEDTAVYYCAALSKKVRTGQYNVGGDYWGQGTQVTVSS | high polyreactivity
QVQLVESGGRLVQAGGTLRLSCAASGNIFFVYDMGWYRQPPGKESELVAAISWSGGSTYADSVKGRFTISRDNAKNTVYLQMNSLKPEDTAVYYCAADVAYVEYDYWGQGTQVTVSS | low polyreactivity
QVQLVESGGRLVQARGSLSLSCAASGRTFLRYAMGWYRQAPGKERELVAAISQRGGSTYYADSVKGRFTISRDNAKNTVYLQMNRLKPEDTAVYYCAADFPSSQAVDSWGQGTQVTVSS | high polyreactivity
QVQLVESGGRLVQPGGSLRLSCAASGFIFFYYAMGWYSQAPGKESELVAAISSGGSTNYADSVKGRFTISRDNAKNTVYLQMNSLKPEDTAVYYCAKRPTGGYKYYYTTSKYDYWGQGTQVTVSS | low polyreactivity
QVQLVESGGSLLQAGCSLRLSCAASGFIIAWYAMGWSRQAPGKEWELVAAISLSGGSTRYADSVKGRFTISRDNAKNPVYLQMNCLKPEDTAVYYCNVDRWASTEYDYWGQGTQVTVSS | low polyreactivity
QVQLVESGGSLVKAGGSLRLSCAASGRIFGSNTIGWYRPEPGKERELVAAITSRGGSTYYADSVKGRFTISRDNAKNTVYLQMNSLKPEDTSVYYCAAKTVLFIFGYWGQGTQVSVSS | high polyreactivity
QVQLVESGGSLVQAGGSLRLICAASGFIFWTYAMGWYRQAPGKERELVARISWSGGSTYYADSVKGRFTNSRDNAKNTVYLQMNSLKPEDTAVYYCAALTESSSYGYWGQGTQVTVSS | low polyreactivity
QVQLVESGGSLVQAGGSLRLSCAASGRIFHNNAMGWYRQAPGKERELVAAISTGGSTNYADSVKGRFTISRDNAKNTVYLQMNSLTPEDTAVYYCAAEHPVTYPTSKFDYWGQGTQVTVSS | low polyreactivity
QVQLVESGGSLVQAGGSLRLSCASSGYIFRLYAMGWYRHAPGKEREYVATITASGGTYYADSVKGRFTISRDNAKNTVYLQMNSLKPEDTAVYYCAAAKLRRLSRVRYVYWGQGTQVTVSS | high polyreactivity
QVQLVESGGVLVHAGGSLRLSCAASGITFEYYTMGWYRKAPGKERELVAAISSGGGSTYYADSVKGRFTISRDNAKNTVYLQMKSLKPEDTAVYYCAARGYRADQWEYDYWGQGTQVTVSS | low polyreactivity
QVQLVESGGVLVLVGGSLRLSCADSGMTFYWYTMGWYRQAPGKERELVAAITRRSARTYYADSVKGRFSISRDNAKNTVYLQMNILKPEDTAVYYCGAAGRPGGYVQRDSWGQGTQVTVSS | high polyreactivity
QVQLVESGGVLVQAGGRLRLSCAASGLTFYLYAMGWYRQAPGKQREFVAAISRSGTSTYYADSVKGRFTISRDYAKNTVNLQKNSLKPDDTAVYYCAALNYHKFAHKYDYWGQGTPVTVSS | low polyreactivity
QVQLVESGGVLVQAGGSLRFSCAASGIIFDQYAMGWYRQAPGKEREFVAVITRSGGSTYYADSVKGRFTISRDNAKKTVYLQMNSLKPEDTAVYYCAAPRLLGKRRRTNDYWGQGTQVTVSS | high polyreactivity
QVQLVESGGVLVQAGGSLRLICAASGSIFGWNTKGWYRQSAGKERELVAGITRGGSTYYADSVKGRFTISRDNAKNTVYLQMNRQKPEDTAVYYCAALVYRAWEFEFWGQGTQVTVSS | high polyreactivity
QVQLVESGGVLVQAGGSLRLRCAASGRIFNRNAMGWYRQAPGKERELVAAITSCGSTNYADSVKGRFTISRDNAKNTVYLQMNSLKPEDTAVYYCNVYYHFFRLKTTYLRYYYWGQGTQVTVSS | high polyreactivity
QVQLVESGGVLVQAGGSLRLRCAASGRIFSRYTMGWYRQAPGKERELVAAIRNTGSTNYADSVKGRFTISRDNAKNTVYLQMNSLKPEDTAVYYCNARTAYGAYHYYYPQRMDYWGQGTQVTVSS | high polyreactivity
QVQLVESGGVLVQAGGSLRLSCAASGFTFNYYVMGWYRQAPWKERELVATITSVGSTYYADSVKGRFTISRDNAKNTVYLQMNSLKPEDTAVYYCNADWYWRVYWGQGTQVTVSS | high polyreactivity
QVQLVESGGVLVQAGGSLRLSCAASGFTFTPNAMGWYTQAPGKERELVAAIDWNGGSTYYADAVKGRFTISRDNAKNTVYLQMNSLKPEDTAVYYCAADDEEWKVITDYDYWGQGTQVTVSS | low polyreactivity
QVQLVESGGVLVQAGGSLRLSCAASGGIFNQYAMGWYRQAPGKERELVAAISSSGSSTYYADSVKGRFTISRDNAKNTVYLLMNSLKPEDTAVYYCNTYYSYQRVGYWGQGTQVTVSS | high polyreactivity
QVQLVESGGVLVQAGGSLRLSCAASGLNLAPNAMGWYRQAPGKEMELVAAITRSGGDTYYADSVKGRFTISRENAKNTVYLQMNSLKPEDTAVYYCAKARPGFLYDHWGQGTQVTVSS | high polyreactivity

Sequence | polyreactivity (PSR sort gate)
QVQLVESGGVLVQAGGSLRLSCAASGLTFSWYAMGWYRQAPGKERELVASINYSGANTYYADSVKGRFTISRDNAQNTVFLQMNSLKPEDTAVYYCNSRLRRYQNERVTYDYWGQGTQVTVSS | high polyreactivity
QVQLVESGGVLVQAGGSLRLSCAASGRIFRSYALGWYRQAPGKETEFVAAISSGGSTNYADSVKGRFTISRDNAKNTVYLQMNSLKREDTAVYYCAADLWAYTWYWHSDYWGQGTQVTVSS | low polyreactivity
QVQLVESGGVLVQAGGSLRLSCAASGRTFNAYTMGWYRQAPGKERELVAAITSSGGNTYYADSVKGRFTITRDNGKNTVFLQMNSLKPEDTAVYYCNTVYLYGTHDYWGQGTQLTVSS | low polyreactivity
QVQLVESGGVLVQAGGSLRLSCAASGRTFRYYGMGWYRQAPGKERVVAAITWSGDTTYYADSVKGRFTISRDNAKNTVYLQMNSLKPEDTAVYYCAAQSWHRYYYWGQGTQVTVSS | high polyreactivity
QVQLVESGGVLVQAGGSLRLSCAASGRTFSPYAMGWARQAPGKDRELVAAITSRGASTYYADSVKGRFTISRDNAKNTVYLQMNSLKPEDTAVYYCNSGRTYRRLGDYWGQGTQVTVSS | high polyreactivity
QVQLVESGGVLVQAGGSLRLSCAASGRTFYYYAMGWYRQAPGKERELVASISWDGGNTYYADSVKGRFTISRDTAKNTVYLHMNSLKPEDTAVYYCNRRFYHKDDYWGQGTQVTVSS | high polyreactivity
QVQLVESGGVLVQAGGSLRLSCAASGRTLRSYAMGWYRHAPGKERELVAAISRSGGSTYYADSVKGRFTISRDNAKNTVYLQMNSLKPEDTAVYYCATRYLGRLDYWGQGTQVTVSS | high polyreactivity
QVQLVESGGVLVQAGGSLRLSCAASGRTMDPYTMGGYRQAHGKERELVAAITSSGGRTTYADSVKGRFTISRDNAKNYVYLQMNSLKPEDTAVYYCAKKFRPGYRSQYLRYSWGQGTQVTVSS | low polyreactivity
QVQLVESGGVLVQAGGSLRLSCAASGSIFGSYGMGWYRQAPGKERELVAAIRVSGGSTYYADSVKGRFTISRDNAKNTVYLQMNSLKPEDTAVYYCAARARSTPRKYYYTRGYWGQGTQVTVSS | high polyreactivity
QVQLVESGGVLVQAGGSLRLSCAASGSIFGSYTMGWYRQAPGKEREMVAAISGGGASTYYADSVKGRFTISRDNAKNTVYLQMNSLKPEDTAVYYCYKRGVIERRKPWHYSTFDYWGQGTQVTVSS | low polyreactivity
QVQLVESGGVLVQAGGSLRLSCAASGSISYSYAMGWYRQAPGKERELVAAITWGGDSTYYADSVKGRFTISRDNAKNTVYLQMNSLKPEDTAVYYCAADLRFTYPVYRAGGGYDYWGQGTQVTVSS | low polyreactivity
QVQLVESGGVLVQAGGSLRLSCAASGSTFKPYAMGWYRQAPGKEREFVAANSRGTRTYADSVKGRFTISRDNAKNTVSLPMNSLKPEDTAVYYCAAEWSWIFGYHYEYDYGGQGTQVTVSS | low polyreactivity
QVQLVESGGVLVQAGGSLRLSCAASGSTFSRYAMGWYRQAPGKETELVAAINWSGGRTYYADSVKGRFTISRDNAKNTVYLQMNSLIAADTAVYFCAADGRRYSGEYYYWGQGTQVTVSS | high polyreactivity
QVQLVESGGVLVQAGGSLRLSCAASGSTFTDYAMGWYRQAPGKERELVAAITDSGGRTYYADSVKGRFTISRDNAKNTVYLQMNSLKPEDTAVYYCATEDDRWYYWGQGTQVTVSS | high polyreactivity
QVQLVESGGVLVQAGGSLRLSCAASGSTFYYYAMGWYRKAPGKERELVAAISSSGGTTYYADSVKGRFTISRDNAKNTVYLQMNSLKPEDTAVYYCAKYPWYWDEGNSWGQGTQVTVSS | low polyreactivity
QVQLVESGGVLVQAGGSLRLSCAASGSTLGGNAMGWYRQAPGKEMELVAAITSSAGSTYYADSVKGRFTISRDNAKNTVYLQMNSLKPEDTAVYYCDADYSRDEYDYWGQGTQVTVSS | low polyreactivity
QVQLVESGGVLVQAGGSLRLSCAASGYIFGNYAMGWYRQAPGNERELVASIDSGGSTNYADSVKGRFTISRDNAKNTVYLQKNSLKPEDTAVYYWAARPTWNRGRSRKYWRYNYWAQGTQVTVSS | high polyreactivity
QVQLVESGGVLVQAGGSLRLSCAASGYIFYPYAMGWYRQAPGKERELVAAISGSGSGTYYADSVKGRFTISRDNAKNTVYLQMNSLKPEDTAVYYCAKYLYDNVWMDYWGQGTQVTVSS | low polyreactivity
QVQLVESGGVLVQAGGSLRLSCAAYGFIFDYYAMGWYRQAPGKERELVAAITSRGGSTYYADSVKGRFTISRDNAKNTVYLQMNSLKPEDSAVYYCAARRRSAEYNYWGQGTQVTVSS | high polyreactivity
QVQLVESGGVLVQAGGSLRLSCAAYGSTLRRYAMGWYRQAPGKERELVAAISYSGGSTYYADSVKGRFTISRDNAKNTVYLQMNSLKPEDTAVYYCAVVTRKGLYDYWGQGTQVTVSS | high polyreactivity
QVQLVESGGVLVQAGGSLRLSCAPSGFTFYRYAMGWYRQAPGKESELVAAISYSGGRTYYADSVKGRFTISCDIAKNTVYLQMNSLKPEDTAVYYCNARASYGHQGRLGYARLYYWGQGTQVTVSS | high polyreactivity

From the nanobody polyreactivity screen of Harvey et al. (2022)
